The target in this assay is T1, HLA-A2*0201 on T2 cells (human).
T1 construct: whole, on cells; also called HLA-A2 antigen
The experiment in a line: T2 cell HLA-A2 stabilisation assay, flow cytometry. Background: In flow cytometry, cells or beads pass a laser one at a time.

From patent publication US20070280939A1 (published 2007) come the findings set out here.

Experimental: T2 cells incubated with peptides were stained for the presence of cell surface HLA-A2 antigen using flow cytometry. Fluorescent intensity of stained cells was used to determine the ability of test peptides to bind and therefore stabilise HLA-A2. […] The RBI was calculated for each peptide from the obtained mean fluorescence intensity (MFI) of T2 cells incubated with test peptide divided by the MFI obtained from cells incubated with 100% DMSO alone.
T2 cells were washed twice in serum-free RPMI and incubated overnight at 37° C. in a round-bottomed 96 well plate in 50 μl serum-free RPMI containing 160,000 cells and final concentrations of 100, 10 and 1 μM of peptide. A negative control was provided by adding dilute DMSO without peptide to 2 wells. […] After washing in phosphate buffered saline (PBS) (Oxoid, UK) containing 0.1% bovine serum albumin (BSA) (Sigma, USA), the cells were incubated on ice for 30 minutes with 20 μl of mouse antihuman HLA-A2 antibody MA2.1 (ATCC, UK). Following washing with PBS+BSA, 100 μl of a 1/100 dilution of FITC labelled goat anti-mouse IgG (Sigma, USA) was added and the cells incubated for 30 minutes on ice. The cells were washed twice using PBS+BSA, fixed in 500 μl Isoton and allowed to normalise to room temperature for 20 minutes prior to analysis by flow cytometry.

Regarding ALASCFCFFC [PAP.15], the binding result was “no binding (tested: 100 µM, 10 µM and 1 µM)”.
